{
  "source": "paper PMC11461925",
  "about": "(2024)",
  "binders": {"B1": {"name": "LY-CoV555 Fab (Fab, V domains shown)", "VH": "QVQLVQSGAEVKKPGSSVKVSCKASGGTFSNYAISWVRQAPGQGLEWMGRIIPILGIANYAQKFQGRVTITADKSTSTAYMELSSLRSEDTAVYYCARGYYEARHYYYYYAMDVWGQGTAVTVSS", "VL": "not shown"}},
  "molecular_target": "Wu-1-RBD-I53-50A (SARS-CoV-2, UniProt P0DTC2 328-531)",
  "test": "BLI",
  "data": [
    {"binder": "B1", "values": [
      {"measurement": "Kd", "value": 26.9, "unit": "nM"}
    ]}
  ]
}
